Measured values from article PMC3412864 (PLoS ONE, 2012).
Residue numbers refer to the chain shown, from its start. Numbers in names are those of the source.

B1: Gluconacetobacter hansenii chromate reductase (Gh-ChrR) (enzyme, Gluconacetobacter hansenii ATCC 23769)
chain: MTTTSPLHFVTLLGSLRKASFNAAVARALPEIAPEGIAITPLGSIGTFPHYSQDVQEEGFPAPVLTMAQQIATADAVVIVTPEYNYSVPGVLKNAIDWLSRVSPQPLAGKPVALVTASPGMIGGARAQYHLRQSLVFLDAYVLNRPEAMIGQVTGKVDAQTLELSDVATREFLARQLDALAALARTLSPRAIT
notes: Gh-ChrR, NAD(P)H-dependent FMN reductase from Gluconacetobacter hansenii ATCC 23769 (ZP_06834583); 193 native residues; codon-optimised synthetic gene in pJexpress411; Monomer 21.3 kDa (193 native residues plus a six-residue C-terminal poly-histidine tag); In the crystal 5-6 N-terminal and 7-9 C-terminal residues are not seen; also called putative chromate reductase; source: E. coli BL21(DE3), …
B2: Gh-ChrR (Novacetimonas hansenii ATCC 23769; S118A) (protein)
chain: B1 chain with S118A
B3: Gh-ChrR (Novacetimonas hansenii ATCC 23769; N85A) (protein)
chain: B1 chain with N85A
B4: Gh-ChrR (Novacetimonas hansenii ATCC 23769; R101A) (protein)
chain: B1 chain with R101A

Experiments:
Gh-ChrR [1] = target: T1, Gh-ChrR (Novacetimonas hansenii, UniProt D5QFC5); assay: chromate reduction rate; assay type: biochemical; conditions: 200 µM NADPH, 5 µM enzyme, 50 mM Tris-HCl, 100 mM NaCl, pH 7.4
T1 construct: gene GXY_09224; full length (193 native residues) plus C-terminal 6xHis tag kept; E. coli BL21(DE3), codon-optimised

Gh-ChrR [2] = target: T1, Gh-ChrR; assay: initial velocities, ordered bireactant model with substrate inhibition; assay type: biochemical; conditions: competitive with chromate, dead-end FMN-enzyme-NADH complex
Excerpt: initial velocities, ordered bireactant model with substrate inhibition on Gh-ChrR | Ki is the dissociation constant of the dead-end product of FMN-Gh-ChrR-NADH

Gh-ChrR [3] = target: T1, Gh-ChrR; assay: X-ray crystal structure, […] Å; absorbance stoichiometry; assay type: binding; conditions: non-covalent, one FMN per monomer, co-purified
[4] = substrate: NC(=O)C1=CN([C@@H]2O[C@H](COP(=O)(O)OP(=O)(O)OC[C@H]3O[C@@H](n4cnc5c(N)ncnc54)[C@H](O)[C@@H]3O)[C@@H](O)[C@H]2O)C=CC1; assay: initial velocities, ordered bireactant model with substrate inhibition; assay type: biochemical, Novacetimonas hansenii; conditions: varied chromate and NADH, Tris-HCl pH 7.4
Excerpt: initial velocities, ordered bireactant model with substrate inhibition on […] | KmB is the Michaelis-Menten constant of NADH

[5] = target: the molecule itself; assay: crystal structure; hanging-drop vapor diffusion at room temperature; protein ~9 mg/mL in 20 mM Tris-HCl, 150 mM NaCl, pH 7.4; precipitant 0.5% PEG4000, 10% isopropanol, 0.1 M HEPES pH 7.5; 2.25 Å; four monomers in the asymmetric unit
purified protein = substrate: [O]=[Cr](=[O])([OH])[OH]; assay: purified protein; conditions: 100 µM NADH, 5 µM enzyme, 50 mM Tris-HCl, 100 mM NaCl, pH 7.4, 37°C, aerobic

Molecule | Km (purified protein) [µM] | Vmax (purified protein) [µmol/min/mg] | kcat (purified protein) [s⁻¹] | kcat/Km (purified protein) [M⁻¹ s⁻¹] | also measured
NC(=O)C1=CN([C@@H]2O[C@H](COP(=O)(O)OP(=O)(O)OC[C@H]3O[C@@H](n4cnc5c(N)ncnc54)[C@H](OP(=O)(O)O)[C@@H]3O)[C@@H](O)[C@H]2O)C=CC1 [NADPH] | – | – | – | – | chromate reduction rate (Gh-ChrR [1]): Both NADH and NADPH support maximal chromate reduction by Gh-ChrR
NC(=O)C1=CN([C@@H]2O[C@H](COP(=O)(O)OP(=O)(O)OC[C@H]3O[C@@H](n4cnc5c(N)ncnc54)[C@H](O)[C@@H]3O)[C@@H](O)[C@H]2O)C=CC1 [NADH] | – | – | – | – | Ki (Gh-ChrR [2]): 3.5 ± 0.7 µM
Cc1cc2nc3c(=O)[nH]c(=O)nc-3n(C[C@H](O)[C@H](O)[C@H](O)COP(=O)(O)O)c2cc1C [FMN] | – | – | – | – | X-ray crystal structure, 2.25 Å; absorbance stoichiometry (Gh-ChrR [3]): Gh-ChrR crystallized with one molecule of FMN associated with each protein monomer
B1 | 240 ± 70 | 0.75 | 0.25 | 1000 | Km [4]: 7 ± 1 µM; stoichiometry N [5]: 4
B2 | 600 ± 20 | 0.9 | 0.3 | 500 | –
B3 | 600 ± 100 | 0.16 | 0.053 | 90 | –
B4 | 1900 ± 600 | 0.24 | 0.08 | 40 | –
